The numbers were not newly measured in patent US9737089B2, “Milk-based nutritional compositions containing lactoferrin and uses thereof” (Mead Johnson Nutrition Company, priority 2012, dated 2017), which cites them from elsewhere.

For the data set, the system named is EPEC adhesion to HeLa cells. To be noted: Nascimento de Arujao et al., BMC Microbiol. 1:25 (2001).

B1: human lactoferrin: iron-binding glycoprotein, one of the major multifunctional agents present in human milk (protein, UniProt P02788 20-710, looked up)
Lactotransferrin: GRRRSVQWCAVSQPEATKCFQWQRNMRKVRGPPVSCIKRDSPIQCIQAIAENRADAVTLDGGFIYEAGLAPYKLRPVAAEVYGTERQPRTHYYAVAVVKKGGSFQLNELQGLKSCHTGLRRTAGWNVPIGTLRPFLNWTGPPEPIEAAVARFFSASCVPGADKGQFPNLCRLCAGTGENKCAFSSQEPYFSYSGAFKCLRDGAGDVAFIRESTVFEDLSDEAERDEYELLCPDNTRKPVDKFKDCHLARVPSHAVVARSVNGKEDAIWNLLRQAQEKFGKDKSPKFQLFGSPSGQKDLLFKDSAIGFSRVPPRIDSGLYLGSGYFTAIQNLRKSEEEVAARRARVVWCAVGEQELRKCNQWSGLSEGSVTCSSASTTEDCIALVLKGEADAMSLDGGYVYTAGKCGLVPVLAENYKSQQSSDPDPNCVDRPVEGYLAVAVVRRSDTSLTWNSVKGKKSCHTAVDRTAGWNIPMGLLFNQTGSCKFDEYFSQSCAPGSDPRSNLCALCIGDEQGENKCVPNSNERYYGYTGAFRCLAENAGDVAFVKDVTVLQNTDGNNNEAWAKDLKLADFALLCLDGKRKPVTEARSCHLAMAPNHAVVSRMDKVERLKQVLLHQQAKFGRNGSDCPDKFCLFQSETKNLLFNDNTECLARLHGKTTYEKYLGPQYVAGITNLKKCSTSPLLEACEFLRK
Take B1: the “inhibition of adhesion of EPEC to HeLa cells” value is on record as “can inhibit the adhesion”.
